# Laboratory results taken from US20200048328A1 (Bristol-Myers Squibb, published 2020).
# Legend:
# rhesus serum albumin = molecular target: T1, rhesus serum albumin (rhesus, UniProt Q28522 17-600); assay: direct binding ELISA, albumin coated
# T1 construct: also called RhSA; Rh-SA
# mouse serum albumin = molecular target: T2, mouse serum albumin (mouse, UniProt P07724 25-608); assay: direct binding ELISA, albumin coated
# T2 construct: also called MSA; MuSA
# human serum albumin = molecular target: T3, human serum albumin (human, UniProt P02768 25-609); assay: direct binding ELISA, albumin coated
# T3 construct: immobilized on chips or coated on plates elsewhere; also called HSA; HuSA
# human PCSK9 [1] = molecular target: T4, human PCSK9 (human, UniProt Q8NBP7 31-692); assay: PCSK9:LDLR FRET, competition
# T4 construct: also called hPCSK9; huPCSK9
# human PCSK9 [2] = molecular target: T4, human PCSK9; assay: PCSK9:EGFA FRET 1, competition
# human PCSK9 [3] = molecular target: T4, human PCSK9; assay: PCSK9:EGFA FRET 2, competition
Binder,EC50 (rhesus serum albumin) [nM],EC50 (mouse serum albumin) [nM],EC50 (human serum albumin) [nM],IC50 (human PCSK9 [1]) [nM],IC50 (human PCSK9 [2]) [nM],IC50 (human PCSK9 [3]) [nM]
"PCSK9-PKE2 tandem 4472_E09 (designed binder, In the real molecule the two parts given here are one polypeptide, joined by the undisclosed linker A. They are written as two chains only because the linker has no letters., not shown: Linker 'A' joining ...NYRTE of the PCSK9 domain to GVSDV... of the PKE2 domain) PCSK9 domain: MGVSDVPRDLEVVAATPTSLLISWDAPAEGYGYYRITYGETGGNSPVQEFTVPVSKGTATISGLKPGVDYTITVYAVEFDFPGAGYYHRPISINYRTE PKE2 domain: GVSDVPRDLEVVAATPTSLLISWDAPAVTVRYYRITYGREVQKYSDLGPLYIYQEFTVPGSKSTATISGLKPGVDYTITVYAVTGSGESPASSKPISINYRTEHHHHHH",19.8,7,23.8,1.3,5.81,4.81
"PCSK9-PKE2 tandem 4472_A11 (designed binder, In the real molecule the two parts given here are one polypeptide, joined by the undisclosed linker B. They are written as two chains only because the linker has no letters., not shown: Linker 'B' joining ...NYRTE of the PCSK9 domain to GVSDV... of the PKE2 domain) PCSK9 domain: MGVSDVPRDLEVVAATPTSLLISWDAPAEGYGYYRITYGETGGNSPVQEFTVPVSKGTATISGLKPGVDYTITVYAVEFDFPGAGYYHRPISINYRTE PKE2 domain: GVSDVPRDLEVVAATPTSLLISWDAPAVTVRYYRITYGREVQKYSDLGPLYIYQEFTVPGSKSTATISGLKPGVDYTITVYAVTGSGESPASSKPISINYRTEHHHHHH",15.7,3.9,26.9,1.4,6.13,3.76
"PCSK9-PKE2 tandem 4472_H09 (designed binder, The real molecule is ONE polypeptide: PCSK9 domain, undisclosed linker C, PKE2 domain. It is given here as two chains because the linker letters are unknown., not shown: The inter-domain linker) PCSK9 domain: MGVSDVPRDLEVVAATPTSLLISWDAPAEGYGYYRITYGETGGNSPVQEFTVPVSKGTATISGLKPGVDYTITVYAVEFDFPGAGYYHRPISINYRTE PKE2 domain: GVSDVPRDLEVVAATPTSLLISWDAPAVTVRYYRITYGREVQKYSDLGPLYIYQEFTVPGSKSTATISGLKPGVDYTITVYAVTGSGESPASSKPISINYRTEHHHHHH",26.8,4,27.8,3,9.66,7.17
"PCSK9-PKE2 tandem 4472_F04 (designed binder, The real molecule is ONE polypeptide: PCSK9 domain, undisclosed linker D, PKE2 domain. It is given here as two chains because the linker letters are unknown., not shown: The inter-domain linker) PCSK9 domain: MGVSDVPRDLEVVAATPTSLLISWDAPAEGYGYYRITYGETGGNSPVQEFTVPVSKGTATISGLKPGVDYTITVYAVEFDFPGAGYYHRPISINYRTE PKE2 domain: GVSDVPRDLEVVAATPTSLLISWDAPAVTVRYYRITYGREVQKYSDLGPLYIYQEFTVPGSKSTATISGLKPGVDYTITVYAVTGSGESPASSKPISINYRTEHHHHHH",27.8,3.8,40.3,1.2,3.99,4.18
"PCSK9-PKE2 tandem 4472_C08 (designed binder, The real molecule is ONE polypeptide: PCSK9 domain, undisclosed linker 'E' (a code letter, not the residue), PKE2 domain. It is given here as two chains because the linker letters are unknown., not shown: The inter-domain linker) PCSK9 domain: MGVSDVPRDLEVVAATPTSLLISWDAPAEGYGYYRITYGETGGNSPVQEFTVPVSKGTATISGLKPGVDYTITVYAVEFDFPGAGYYHRPISINYRTE PKE2 domain: GVSDVPRDLEVVAATPTSLLISWDAPAVTVRYYRITYGREVQKYSDLGPLYIYQEFTVPGSKSTATISGLKPGVDYTITVYAVTGSGESPASSKPISINYRTEHHHHHH",25.7,4.8,40.4,1.9,9.38,5.09
"PCSK9-PKE2 tandem 4472_F06 (designed binder, The real molecule is ONE polypeptide: PCSK9 domain, undisclosed linker 'G' (a code letter, not the residue), PKE2 domain. It is given here as two chains because the linker letters are unknown., not shown: The inter-domain linker) PCSK9 domain: MGVSDVPRDLEVVAATPTSLLISWDAPAEGYGYYRITYGETGGNSPVQEFTVPVSKGTATISGLKPGVDYTITVYAVEFDFPGAGYYHRPISINYRTE PKE2 domain: GVSDVPRDLEVVAATPTSLLISWDAPAVTVRYYRITYGREVQKYSDLGPLYIYQEFTVPGSKSTATISGLKPGVDYTITVYAVTGSGESPASSKPISINYRTEHHHHHH",40.8,11.3,58.9,1.1,4.5,3.42
"PCSK9-PKE2 tandem 4472_G10 (designed binder, The real molecule is ONE polypeptide: PCSK9 domain, undisclosed linker H (a code letter), PKE2 domain. It is given here as two chains because the linker letters are unknown., not shown: The inter-domain linker) PCSK9 domain: MGVSDVPRDLEVVAATPTSLLISWDAPAEGYGYYRITYGETGGNSPVQEFTVPVSKGTATISGLKPGVDYTITVYAVEFDFPGAGYYHRPISINYRTE PKE2 domain: GVSDVPRDLEVVAATPTSLLISWDAPAVTVRYYRITYGREVQKYSDLGPLYIYQEFTVPGSKSTATISGLKPGVDYTITVYAVTGSGESPASSKPISINYRTEHHHHHH",48.3,10,61.3,2.4,7.81,6.81
"PCSK9-PKE2 tandem 4472_B10 (designed binder, The real molecule is ONE polypeptide: PCSK9 domain, undisclosed linker J, PKE2 domain. It is given here as two chains because the linker letters are unknown., not shown: The inter-domain linker) PCSK9 domain: MGVSDVPRDLEVVAATPTSLLISWDAPAEGYGYYRITYGETGGNSPVQEFTVPVSKGTATISGLKPGVDYTITVYAVEFDFPGAGYYHRPISINYRTE PKE2 domain: GVSDVPRDLEVVAATPTSLLISWDAPAVTVRYYRITYGREVQKYSDLGPLYIYQEFTVPGSKSTATISGLKPGVDYTITVYAVTGSGESPASSKPISINYRTEHHHHHH",38.9,10.9,67.7,2.2,9.69,6.97
"PCSK9-PKE2 tandem 4472_B09 (designed binder, not shown: small tags and cut ends, The two parts are one polypeptide in the real molecule, joined by the undisclosed linker K; they are given here as separate chains.) PCSK9 10Fn3: MGVSDVPRDLEVVAATPTSLLISWDAPAEGYGYYRITYGETGGNSPVQEFTVPVSKGTATISGLKPGVDYTITVYAVEFDFPGAGYYHRPISINYRTE PKE2 10Fn3: GVSDVPRDLEVVAATPTSLLISWDAPAVTVRYYRITYGREVQKYSDLGPLYIYQEFTVPGSKSTATISGLKPGVDYTITVYAVTGSGESPASSKPISINYRTEHHHHHH",45.1,9.8,69.2,2.4,9.36,6.95
"PCSK9-PKE2 tandem 4472_B11 (designed binder, not shown: small tags and cut ends, The two parts are one polypeptide in the real molecule, joined by the undisclosed linker L; they are given here as separate chains.) PCSK9 10Fn3: MGVSDVPRDLEVVAATPTSLLISWDAPAEGYGYYRITYGETGGNSPVQEFTVPVSKGTATISGLKPGVDYTITVYAVEFDFPGAGYYHRPISINYRTE PKE2 10Fn3: GVSDVPRDLEVVAATPTSLLISWDAPAVTVRYYRITYGREVQKYSDLGPLYIYQEFTVPGSKSTATISGLKPGVDYTITVYAVTGSGESPASSKPISINYRTEHHHHHH",54,13.5,70.1,2,6.54,5.03
"PCSK9-PKE2 tandem 4472_A06 (designed binder, not shown: small tags and cut ends, The two parts are one polypeptide in the real molecule, joined by the undisclosed linker M; they are given here as separate chains.) PCSK9 10Fn3: MGVSDVPRDLEVVAATPTSLLISWDAPAEGYGYYRITYGETGGNSPVQEFTVPVSKGTATISGLKPGVDYTITVYAVEFDFPGAGYYHRPISINYRTE PKE2 10Fn3: GVSDVPRDLEVVAATPTSLLISWDAPAVTVRYYRITYGREVQKYSDLGPLYIYQEFTVPGSKSTATISGLKPGVDYTITVYAVTGSGESPASSKPISINYRTEHHHHHH",44.4,8.6,77.8,1.6,9.06,2.72
"PCSK9-PKE2 tandem 4472_D08 (designed binder, not shown: small tags and cut ends, The two parts are one polypeptide in the real molecule, joined by the undisclosed linker N; they are given here as separate chains.) PCSK9 10Fn3: MGVSDVPRDLEVVAATPTSLLISWDAPAEGYGYYRITYGETGGNSPVQEFTVPVSKGTATISGLKPGVDYTITVYAVEFDFPGAGYYHRPISINYRTE PKE2 10Fn3: GVSDVPRDLEVVAATPTSLLISWDAPAVTVRYYRITYGREVQKYSDLGPLYIYQEFTVPGSKSTATISGLKPGVDYTITVYAVTGSGESPASSKPISINYRTEHHHHHH",54.1,9.5,80.2,1.7,6.32,5.22
"PCSK9-PKE2 tandem 4472_B05 (designed binder, not shown: small tags and cut ends, The two parts are one polypeptide in the real molecule, joined by the undisclosed linker O; they are given here as separate chains.) PCSK9 10Fn3: MGVSDVPRDLEVVAATPTSLLISWDAPAEGYGYYRITYGETGGNSPVQEFTVPVSKGTATISGLKPGVDYTITVYAVEFDFPGAGYYHRPISINYRTE PKE2 10Fn3: GVSDVPRDLEVVAATPTSLLISWDAPAVTVRYYRITYGREVQKYSDLGPLYIYQEFTVPGSKSTATISGLKPGVDYTITVYAVTGSGESPASSKPISINYRTEHHHHHH",59.5,9.3,85.1,1.9,6.66,5.55
"PCSK9-PKE2 tandem 4472_H11 (designed binder, not shown: small tags and cut ends, The two parts are one polypeptide in the real molecule, joined by the undisclosed linker P (a code, not a proline); they are given here as separate chains.) PCSK9 10Fn3: MGVSDVPRDLEVVAATPTSLLISWDAPAEGYGYYRITYGETGGNSPVQEFTVPVSKGTATISGLKPGVDYTITVYAVEFDFPGAGYYHRPISINYRTE PKE2 10Fn3: GVSDVPRDLEVVAATPTSLLISWDAPAVTVRYYRITYGREVQKYSDLGPLYIYQEFTVPGSKSTATISGLKPGVDYTITVYAVTGSGESPASSKPISINYRTEHHHHHH",58.1,13.2,85.3,1.3,8.76,6.24
"PCSK9-PKE2 tandem 4472_E04 (designed binder, not shown: small tags and cut ends, The two parts are one polypeptide in the real molecule, joined by the undisclosed linker Q; they are given here as separate chains.) PCSK9 10Fn3: MGVSDVPRDLEVVAATPTSLLISWDAPAEGYGYYRITYGETGGNSPVQEFTVPVSKGTATISGLKPGVDYTITVYAVEFDFPGAGYYHRPISINYRTE PKE2 10Fn3: GVSDVPRDLEVVAATPTSLLISWDAPAVTVRYYRITYGREVQKYSDLGPLYIYQEFTVPGSKSTATISGLKPGVDYTITVYAVTGSGESPASSKPISINYRTEHHHHHH",64.8,8.9,101,2,9.45,7.54
"PCSK9-PKE2 tandem 4472_E05 (designed binder, not shown: small tags and cut ends, The two parts are one polypeptide in the real molecule, joined by the undisclosed linker R; they are given here as separate chains.) PCSK9 10Fn3: MGVSDVPRDLEVVAATPTSLLISWDAPAEGYGYYRITYGETGGNSPVQEFTVPVSKGTATISGLKPGVDYTITVYAVEFDFPGAGYYHRPISINYRTE PKE2 10Fn3: GVSDVPRDLEVVAATPTSLLISWDAPAVTVRYYRITYGREVQKYSDLGPLYIYQEFTVPGSKSTATISGLKPGVDYTITVYAVTGSGESPASSKPISINYRTEHHHHHH",63.1,13.1,102,1.5,5.66,4.35
"PCSK9-PKE2 tandem 4472_B03 (designed binder, not shown: The inter-domain linker; In the real molecule the two parts below are one polypeptide joined by this linker) PCSK9 domain: MGVSDVPRDLEVVAATPTSLLISWDAPAEGYGYYRITYGETGGNSPVQEFTVPVSKGTATISGLKPGVDYTITVYAVEFDFPGAGYYHRPISINYRTE PKE2 domain: GVSDVPRDLEVVAATPTSLLISWDAPAVTVRYYRITYGREVQKYSDLGPLYIYQEFTVPGSKSTATISGLKPGVDYTITVYAVTGSGESPASSKPISINYRTEHHHHHH",98.2,14.8,124,1.4,7.45,4.83
